Data taken from doi:10.1101/2024.01.29.577165.

How the values were obtained:
[1] = target: Grappling Hook Protein A (GhpA), assembled as the grappling hook (Aureispira sp. CCB-QB1); experiment: cryo-EM structure
[2] = target: Grappling Hook Protein A (GhpA), assembled as the grappling hook (Aureispira sp. CCB-QB1); experiment: cryo-electron tomography with subtomogram averaging

Substance: Grappling Hook Protein A (GhpA), assembled as the grappling hook (natural protein)
- stoichiometry N [1]: 7
- stoichiometry N [2]: 7
